Data taken from patent US20260130997A1 (BEAM THERAPEUTICS, published 2026).

Legend:
[1] = molecular target: T1, mutant CD45 D1-D2 protein T264A (Homo sapiens, UniProt P08575 225-394, limits assumed); experiment: binding to mutant CD45 D1-D2 protein relative to WT CD45 D1-D2; method not given
T1 chain: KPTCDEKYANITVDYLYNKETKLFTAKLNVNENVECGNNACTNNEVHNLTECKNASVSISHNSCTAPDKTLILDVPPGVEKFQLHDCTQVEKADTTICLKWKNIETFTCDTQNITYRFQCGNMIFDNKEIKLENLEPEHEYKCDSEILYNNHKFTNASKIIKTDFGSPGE

[2] = molecular target: T2, mutant CD45 D1-D2 protein N253G, N255G (Homo sapiens, UniProt P08575 225-394, limits assumed); experiment: as above
T2 chain: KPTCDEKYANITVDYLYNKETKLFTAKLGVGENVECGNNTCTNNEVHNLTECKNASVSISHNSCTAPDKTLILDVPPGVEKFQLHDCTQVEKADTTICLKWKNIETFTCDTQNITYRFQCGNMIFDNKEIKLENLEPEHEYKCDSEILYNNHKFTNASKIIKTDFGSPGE

B1: mAb U139AGL030-9 (mAb030-9) (antibody, mouse IgG1, kappa, V domains shown)
VH: EVKLLESGGGLVQPGGSLKLSCAASGFDFSRYWMSWVRQAPGKGLEWIGEINPTSSTINFTPSLKDKVFISRDNAKNTLYLQMSKVRSEDTALYYCARGNYYRYGDAMDYWGQGTSVTVSS
VL: DIALTQSPASLAVSLGQRATISCRASKSVSTSGYSYLHWYQQKPGQPPKLLIYLASNLESGVPARFSGSGSGTDFTLNIHPVEEEDAATYYCQHSRELPFTFGSGTKLEIKR
notes: In the biosensor assay the antibody was captured with Anti-Human IgG Fc Capture (AHC); also called mAb30-9; mAb039-9
[1]
  % Mutant Binding: 112%
[2]
  % Mutant Binding: 44.9%
